Measurements published in PMC7956486, “Conversion of Racemic Unnatural Amino Acids to Optically Pure Forms by a Coupled Enzymatic Reaction” (Molecules, 2021).

How the values were obtained:
[1] = molecular target: T1, TtAT (Thermus thermophilus, UniProt Q75WK2); test: PLP to PMP conversion, absorbance decrease at […] nm; assay type: biochemical; conditions: 50 mM HEPES-NaOH pH 8.0, 0.1 M KCl, 25 °C, 20 μM enzyme, no amine acceptor; racemate used as amine donor
T1 construct: gene TthHB5018_10190; C-terminal His6 tag, amplified from genomic DNA, plasmid pET20b-ttGlnAT, expressed in E. coli BL21(DE3), Ni-NTA purified
T1 sequence (Q75WK2 entry or part of it): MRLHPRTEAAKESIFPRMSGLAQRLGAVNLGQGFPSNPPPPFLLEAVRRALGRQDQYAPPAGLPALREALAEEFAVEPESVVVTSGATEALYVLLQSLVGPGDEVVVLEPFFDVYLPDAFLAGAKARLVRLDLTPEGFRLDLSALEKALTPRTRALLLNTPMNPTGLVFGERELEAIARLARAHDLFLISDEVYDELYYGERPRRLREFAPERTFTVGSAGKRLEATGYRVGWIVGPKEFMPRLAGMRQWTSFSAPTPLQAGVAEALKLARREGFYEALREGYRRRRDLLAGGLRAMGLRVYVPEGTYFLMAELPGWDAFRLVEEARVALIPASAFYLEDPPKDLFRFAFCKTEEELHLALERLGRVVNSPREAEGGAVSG

[2] = substrate: N[C@H](Cc1ccc2ccccc2c1)C(=O)O; test: purified protein; conditions: 75 mM phosphate pH 8.5, 1 mM o-dianisidine, 1 U HRP, 25 °C, 11.9 nM enzyme
[3] = substrate: NC(Cc1ccc(-c2ccccn2)nc1)C(=O)O; test: purified protein; assay type: biochemical, Rhodotorula toruloides; conditions: 75 mM phosphate pH 8.5, 1 mM o-dianisidine, 1 U HRP, 25 °C, 119 nM enzyme, racemate used, value calibrated accordingly
[4] = substrate: NC(Cc1cnc2c(O)cccc2c1)C(=O)O; test: purified protein; assay type: biochemical, Rhodotorula toruloides; conditions: 75 mM phosphate pH 8.5, 1 mM o-dianisidine, 1 U HRP, 25 °C, 119 nM enzyme, racemate used, value calibrated accordingly

Row | Molecule | PLP to PMP conversion, absorbance decrease at 430 nm [1] | Km [2] | kcat [2] | kcat/Km [2] | Km [3] | kcat [3] | kcat/Km [3] | Km [4] | kcat [4] | kcat/Km [4]
1 | NC(Cc1ccc(-c2ccccn2)nc1)C(=O)O (racemic) [BPA, L-BPA] | This result indicates that TtAT recognizes BPA and HQA as substrates | – | – | – | – | – | – | – | – | –
2 | NC(Cc1cnc2c(O)cccc2c1)C(=O)O (racemic) [HQA, L-HQA] | This result indicates that TtAT recognizes BPA and HQA as substrates | – | – | – | – | – | – | – | – | –
3 | RgDAAO (Rhodotorula toruloides) (protein, synthetic gene, N-terminal His6 tag, expressed in E. coli, Ni-NTA purified) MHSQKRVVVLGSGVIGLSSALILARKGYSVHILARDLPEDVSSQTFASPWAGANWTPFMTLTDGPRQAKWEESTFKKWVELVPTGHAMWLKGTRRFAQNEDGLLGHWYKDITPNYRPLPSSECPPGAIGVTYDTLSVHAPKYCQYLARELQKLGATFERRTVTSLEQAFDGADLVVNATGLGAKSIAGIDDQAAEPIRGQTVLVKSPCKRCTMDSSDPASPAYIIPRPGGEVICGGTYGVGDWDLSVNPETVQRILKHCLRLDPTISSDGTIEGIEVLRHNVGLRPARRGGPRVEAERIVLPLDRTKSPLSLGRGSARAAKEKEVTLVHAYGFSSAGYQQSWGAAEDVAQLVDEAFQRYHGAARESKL | – | 52 ± 8.7 µM | 28.5 s⁻¹ | 550000 M⁻¹ s⁻¹ | 87 ± 10 µM | 7.47 ± 0.333 s⁻¹ | 86700 M⁻¹ s⁻¹ | 43 ± 9.4 µM | 2.067 ± 0.00667 s⁻¹ | 48300 M⁻¹ s⁻¹
